Experimental findings from article PMC9839713, “Arabidopsis DXO1 activates RNMT1 to methylate the mRNA guanosine cap” (Nature Communications, 2023) are described below.

The assay has as its target T1, His-DXO1 (Arabidopsis thaliana, UniProt Q8RY73 1-544).
T1 construct: also called His-tagged DXO1; source: E. coli BL21 Rosetta, purified (Ni-NTA); not shown: His6, N-terminal, kept
The assay can be described thus: pull-down; GST pull-down: 2 ug GST-RNMT1 with His-DXO1 or His-cDXO1 on GST agarose beads, 20 mM Tris-HCl pH 7.5, 100 mM NaCl, 1 mM DTT, 1 mM EDTA, 1 h; in the presence of RNase A; eluted with 10 mM GSH; blots with anti-His and anti-GST. To be noted: both partners purified.

T1 sequence (Q8RY73 whole entry): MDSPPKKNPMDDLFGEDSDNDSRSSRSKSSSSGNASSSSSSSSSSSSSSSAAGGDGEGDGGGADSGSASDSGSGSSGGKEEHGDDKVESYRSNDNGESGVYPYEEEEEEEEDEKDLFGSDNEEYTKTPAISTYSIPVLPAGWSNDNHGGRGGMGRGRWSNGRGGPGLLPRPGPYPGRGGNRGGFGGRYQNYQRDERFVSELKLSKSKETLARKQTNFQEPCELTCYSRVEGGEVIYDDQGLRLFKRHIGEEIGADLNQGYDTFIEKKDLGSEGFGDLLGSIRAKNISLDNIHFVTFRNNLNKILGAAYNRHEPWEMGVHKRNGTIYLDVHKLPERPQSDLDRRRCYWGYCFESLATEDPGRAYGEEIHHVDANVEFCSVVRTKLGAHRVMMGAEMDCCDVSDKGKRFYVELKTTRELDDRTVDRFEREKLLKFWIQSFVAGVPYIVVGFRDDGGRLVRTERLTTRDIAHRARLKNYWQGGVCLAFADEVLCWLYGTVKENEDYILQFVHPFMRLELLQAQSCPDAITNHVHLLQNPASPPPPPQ

B1: GST-RNMT1 (natural protein, Arabidopsis thaliana, UniProt Q9LHQ7 1-370, looked up)
chain: MKRGFSDSPSSSAPPPSSRFKSNPEGDSQFLEDETTKNFARKVADHYSRRTNQTLEEREASPIIHLKKLNNWIKSVLIQLYARPDDAVLDLACGKGGDLIKWDKARIGYYVGIDIAEGSIEDCRTRYNGDADHHQRRKKFSFPSRLLCGDCFEVELDKILEEDAPFDICSCQFAMHYSWTTEARARRALANVSALLRPGGVFIGTMPDANVIIKKLREAEGLEIGNSVYWIRFGEEYSQKKFKSSSPFGIEYVFHLEDAVDCPEWIVPFNVFKSLAEEYDLELVFVKNSHEFVHEYMKKPEFVELMRRLGALGDGSNDQSTLSADEWEAAYLYLSFVLRKRGESDGARRSGRRKNGKMNLSKDDVLYIDS
notes: The methods name a 'GST-DXO1' fusion in pGEX-4T-1 and RNMT1 in pET28a, while results, legend and pull-down methods use GST-RNMT1; In the functional rows the RNMT1 was the recombinant protein from pET28a (6X His); also called GST-tagged RNMT1; source: E. coli BL21 Rosetta, purified (GST agarose beads); not shown: GST, N-terminal, kept
As for B1, the binding result is listed as “binds”.
